The values that follow come from US20180009871A1 (INTARCIA THERAPEUTICS, published 2018).

Where no end group is shown, it is not given here. [ ]: non-standard residue; d: D form. Aib = CC(C)(N)C(=O)O

The target in test [1] is human glucagon receptor (GCGR) (human, UniProt P47871 26-477). Nature of the test: cell-based or functional assay.
The target of test [2] is human GLP-1 receptor (GLP-1R) (human, UniProt P43220 24-463). The test can be described thus: cell-based or functional assay.
human GLP-1 receptor (GLP-1R), sequence (P43220 24-463): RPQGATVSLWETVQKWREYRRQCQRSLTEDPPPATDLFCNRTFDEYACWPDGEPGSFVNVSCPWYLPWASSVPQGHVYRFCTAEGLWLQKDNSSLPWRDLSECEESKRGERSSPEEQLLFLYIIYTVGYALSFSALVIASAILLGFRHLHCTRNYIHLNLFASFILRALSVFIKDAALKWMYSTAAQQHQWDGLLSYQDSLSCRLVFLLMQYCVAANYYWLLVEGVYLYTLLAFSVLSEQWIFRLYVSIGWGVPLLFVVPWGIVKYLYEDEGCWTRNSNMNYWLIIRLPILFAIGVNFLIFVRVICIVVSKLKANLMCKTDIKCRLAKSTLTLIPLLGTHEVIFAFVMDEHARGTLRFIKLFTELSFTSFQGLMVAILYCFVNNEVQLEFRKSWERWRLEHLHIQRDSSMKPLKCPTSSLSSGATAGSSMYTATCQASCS

B1: Compound A14 (peptide)
peptide: YSHGTFTSDYSKYLD[Aib]KRAQEFV[Aib]WLEDESSGAPPPS-OH
modifications: N-terminus assumed
SMILES: CC(C)C[C@H](NC(=O)[C@H](Cc1ccc(O)cc1)NC(=O)[C@H](CCCCN)NC(=O)[C@H](CO)NC(=O)[C@H](Cc1ccc(O)cc1)NC(=O)[C@H](CC(=O)O)NC(=O)[C@H](CO)NC(=O)[C@@H](NC(=O)[C@H](Cc1ccccc1)NC(=O)[C@@H](NC(=O)CNC(=O)[C@H](Cc1c[nH]cn1)NC(=O)[C@H](CO)NC(=O)[C@@H](N)Cc1ccc(O)cc1)[C@@H](C)O)[C@@H](C)O)C(=O)N[C@@H](CC(=O)O)C(=O)NC(C)(C)C(=O)N[C@@H](CCCCN)C(=O)N[C@@H](CCCNC(=N)N)C(=O)N[C@@H](C)C(=O)N[C@@H](CCC(N)=O)C(=O)N[C@@H](CCC(=O)O)C(=O)N[C@@H](Cc1ccccc1)C(=O)N[C@H](C(=O)NC(C)(C)C(=O)N[C@@H](Cc1c[nH]c2ccccc12)C(=O)N[C@@H](CC(C)C)C(=O)N[C@@H](CCC(=O)O)C(=O)N[C@@H](CC(=O)O)C(=O)N[C@@H](CCC(=O)O)C(=O)N[C@@H](CO)C(=O)N[C@@H](CO)C(=O)NCC(=O)N[C@@H](C)C(=O)N1CCC[C@H]1C(=O)N1CCC[C@H]1C(=O)N1CCC[C@H]1C(=O)N[C@@H](CO)C(=O)O)C(C)C
Consider B1, for which the “hGCGR pEC50 (cAMP)” value in test [1] was found to be 12 pEC50. Besides, the “hGLP1 pEC50 (cAMP)” value in test [2] was below 9 pEC50.

B2: Compound A18 (peptide)
peptide: YSHGTFTSDYSKWLD[Aib]ARAQEFV[Aib]WLEDEPSSGAPPPS-OH
modifications: N-terminus assumed
SMILES: CC(C)C[C@H](NC(=O)[C@H](Cc1c[nH]c2ccccc12)NC(=O)[C@H](CCCCN)NC(=O)[C@H](CO)NC(=O)[C@H](Cc1ccc(O)cc1)NC(=O)[C@H](CC(=O)O)NC(=O)[C@H](CO)NC(=O)[C@@H](NC(=O)[C@H](Cc1ccccc1)NC(=O)[C@@H](NC(=O)CNC(=O)[C@H](Cc1c[nH]cn1)NC(=O)[C@H](CO)NC(=O)[C@@H](N)Cc1ccc(O)cc1)[C@@H](C)O)[C@@H](C)O)C(=O)N[C@@H](CC(=O)O)C(=O)NC(C)(C)C(=O)N[C@@H](C)C(=O)N[C@@H](CCCNC(=N)N)C(=O)N[C@@H](C)C(=O)N[C@@H](CCC(N)=O)C(=O)N[C@@H](CCC(=O)O)C(=O)N[C@@H](Cc1ccccc1)C(=O)N[C@H](C(=O)NC(C)(C)C(=O)N[C@@H](Cc1c[nH]c2ccccc12)C(=O)N[C@@H](CC(C)C)C(=O)N[C@@H](CCC(=O)O)C(=O)N[C@@H](CC(=O)O)C(=O)N[C@@H](CCC(=O)O)C(=O)N1CCC[C@H]1C(=O)N[C@@H](CO)C(=O)N[C@@H](CO)C(=O)NCC(=O)N[C@@H](C)C(=O)N1CCC[C@H]1C(=O)N1CCC[C@H]1C(=O)N1CCC[C@H]1C(=O)N[C@@H](CO)C(=O)O)C(C)C
Turning to B2, the “hGCGR pEC50 (cAMP)” value in test [1] amounted to 12.4 pEC50. Further, in test [2], the “hGLP1 pEC50 (cAMP)” value was below 9 pEC50.

B3: Compound A16 (peptide)
peptide: YSHGTFTSDYSKYLD[Aib]TRAQEFV[Aib]WLEDEPSSGAPPPS-OH
modifications: N-terminus assumed
SMILES: CC(C)C[C@H](NC(=O)[C@H](Cc1ccc(O)cc1)NC(=O)[C@H](CCCCN)NC(=O)[C@H](CO)NC(=O)[C@H](Cc1ccc(O)cc1)NC(=O)[C@H](CC(=O)O)NC(=O)[C@H](CO)NC(=O)[C@@H](NC(=O)[C@H](Cc1ccccc1)NC(=O)[C@@H](NC(=O)CNC(=O)[C@H](Cc1c[nH]cn1)NC(=O)[C@H](CO)NC(=O)[C@@H](N)Cc1ccc(O)cc1)[C@@H](C)O)[C@@H](C)O)C(=O)N[C@@H](CC(=O)O)C(=O)NC(C)(C)C(=O)N[C@H](C(=O)N[C@@H](CCCNC(=N)N)C(=O)N[C@@H](C)C(=O)N[C@@H](CCC(N)=O)C(=O)N[C@@H](CCC(=O)O)C(=O)N[C@@H](Cc1ccccc1)C(=O)N[C@H](C(=O)NC(C)(C)C(=O)N[C@@H](Cc1c[nH]c2ccccc12)C(=O)N[C@@H](CC(C)C)C(=O)N[C@@H](CCC(=O)O)C(=O)N[C@@H](CC(=O)O)C(=O)N[C@@H](CCC(=O)O)C(=O)N1CCC[C@H]1C(=O)N[C@@H](CO)C(=O)N[C@@H](CO)C(=O)NCC(=O)N[C@@H](C)C(=O)N1CCC[C@H]1C(=O)N1CCC[C@H]1C(=O)N1CCC[C@H]1C(=O)N[C@@H](CO)C(=O)O)C(C)C)[C@@H](C)O
As to B3, the “hGCGR pEC50 (cAMP)” value in test [1] is 11.9 pEC50. Further, in test [2], the “hGLP1 pEC50 (cAMP)” value is below 9 pEC50.

B4: Compound A15 (peptide)
peptide: YSHGTFTSDYSKYLD[Aib]SRAQEFV[Aib]WLEDEPSSGAPPPS-OH
modifications: N-terminus assumed
SMILES: CC(C)C[C@H](NC(=O)[C@H](Cc1ccc(O)cc1)NC(=O)[C@H](CCCCN)NC(=O)[C@H](CO)NC(=O)[C@H](Cc1ccc(O)cc1)NC(=O)[C@H](CC(=O)O)NC(=O)[C@H](CO)NC(=O)[C@@H](NC(=O)[C@H](Cc1ccccc1)NC(=O)[C@@H](NC(=O)CNC(=O)[C@H](Cc1c[nH]cn1)NC(=O)[C@H](CO)NC(=O)[C@@H](N)Cc1ccc(O)cc1)[C@@H](C)O)[C@@H](C)O)C(=O)N[C@@H](CC(=O)O)C(=O)NC(C)(C)C(=O)N[C@@H](CO)C(=O)N[C@@H](CCCNC(=N)N)C(=O)N[C@@H](C)C(=O)N[C@@H](CCC(N)=O)C(=O)N[C@@H](CCC(=O)O)C(=O)N[C@@H](Cc1ccccc1)C(=O)N[C@H](C(=O)NC(C)(C)C(=O)N[C@@H](Cc1c[nH]c2ccccc12)C(=O)N[C@@H](CC(C)C)C(=O)N[C@@H](CCC(=O)O)C(=O)N[C@@H](CC(=O)O)C(=O)N[C@@H](CCC(=O)O)C(=O)N1CCC[C@H]1C(=O)N[C@@H](CO)C(=O)N[C@@H](CO)C(=O)NCC(=O)N[C@@H](C)C(=O)N1CCC[C@H]1C(=O)N1CCC[C@H]1C(=O)N1CCC[C@H]1C(=O)N[C@@H](CO)C(=O)O)C(C)C
On to B4, for which the “hGCGR pEC50 (cAMP)” value in test [1] is 11.4 pEC50. Besides, in test [2], the “hGLP1 pEC50 (cAMP)” value was below 9 pEC50.

B5: Compound A20 (peptide)
peptide: YSHGTFTSDYSKYLD[Aib]KRAQEFV[Aib]WLEDEPSSGKPPPS-OH
modifications: N-terminus assumed
SMILES: CC(C)C[C@H](NC(=O)[C@H](Cc1ccc(O)cc1)NC(=O)[C@H](CCCCN)NC(=O)[C@H](CO)NC(=O)[C@H](Cc1ccc(O)cc1)NC(=O)[C@H](CC(=O)O)NC(=O)[C@H](CO)NC(=O)[C@@H](NC(=O)[C@H](Cc1ccccc1)NC(=O)[C@@H](NC(=O)CNC(=O)[C@H](Cc1c[nH]cn1)NC(=O)[C@H](CO)NC(=O)[C@@H](N)Cc1ccc(O)cc1)[C@@H](C)O)[C@@H](C)O)C(=O)N[C@@H](CC(=O)O)C(=O)NC(C)(C)C(=O)N[C@@H](CCCCN)C(=O)N[C@@H](CCCNC(=N)N)C(=O)N[C@@H](C)C(=O)N[C@@H](CCC(N)=O)C(=O)N[C@@H](CCC(=O)O)C(=O)N[C@@H](Cc1ccccc1)C(=O)N[C@H](C(=O)NC(C)(C)C(=O)N[C@@H](Cc1c[nH]c2ccccc12)C(=O)N[C@@H](CC(C)C)C(=O)N[C@@H](CCC(=O)O)C(=O)N[C@@H](CC(=O)O)C(=O)N[C@@H](CCC(=O)O)C(=O)N1CCC[C@H]1C(=O)N[C@@H](CO)C(=O)N[C@@H](CO)C(=O)NCC(=O)N[C@@H](CCCCN)C(=O)N1CCC[C@H]1C(=O)N1CCC[C@H]1C(=O)N1CCC[C@H]1C(=O)N[C@@H](CO)C(=O)O)C(C)C
Turning to B5, the “hGCGR pEC50 (cAMP)” value in test [1] was found to be 13.3 pEC50. Further, the “hGLP1 pEC50 (cAMP)” value in test [2] is below 9 pEC50.

B6: Compound A17 (peptide)
peptide: YSHGTFTSDYSKYLD[Aib]ERAQEFV[Aib]WLEDEPSSGAPPPS-OH
modifications: N-terminus assumed
SMILES: CC(C)C[C@H](NC(=O)[C@H](Cc1ccc(O)cc1)NC(=O)[C@H](CCCCN)NC(=O)[C@H](CO)NC(=O)[C@H](Cc1ccc(O)cc1)NC(=O)[C@H](CC(=O)O)NC(=O)[C@H](CO)NC(=O)[C@@H](NC(=O)[C@H](Cc1ccccc1)NC(=O)[C@@H](NC(=O)CNC(=O)[C@H](Cc1c[nH]cn1)NC(=O)[C@H](CO)NC(=O)[C@@H](N)Cc1ccc(O)cc1)[C@@H](C)O)[C@@H](C)O)C(=O)N[C@@H](CC(=O)O)C(=O)NC(C)(C)C(=O)N[C@@H](CCC(=O)O)C(=O)N[C@@H](CCCNC(=N)N)C(=O)N[C@@H](C)C(=O)N[C@@H](CCC(N)=O)C(=O)N[C@@H](CCC(=O)O)C(=O)N[C@@H](Cc1ccccc1)C(=O)N[C@H](C(=O)NC(C)(C)C(=O)N[C@@H](Cc1c[nH]c2ccccc12)C(=O)N[C@@H](CC(C)C)C(=O)N[C@@H](CCC(=O)O)C(=O)N[C@@H](CC(=O)O)C(=O)N[C@@H](CCC(=O)O)C(=O)N1CCC[C@H]1C(=O)N[C@@H](CO)C(=O)N[C@@H](CO)C(=O)NCC(=O)N[C@@H](C)C(=O)N1CCC[C@H]1C(=O)N1CCC[C@H]1C(=O)N1CCC[C@H]1C(=O)N[C@@H](CO)C(=O)O)C(C)C
B6: the “hGCGR pEC50 (cAMP)” value in test [1] turned out to be 11.1 pEC50. Moreover, the “hGLP1 pEC50 (cAMP)” value in test [2] was below 9 pEC50.

B7: Compound A19 (peptide)
peptide: YSHGTFTSDYSKWLD[Aib]SRAQEFV[Aib]WLEDEPSSGAPPPS-OH
modifications: N-terminus assumed
SMILES: CC(C)C[C@H](NC(=O)[C@H](Cc1c[nH]c2ccccc12)NC(=O)[C@H](CCCCN)NC(=O)[C@H](CO)NC(=O)[C@H](Cc1ccc(O)cc1)NC(=O)[C@H](CC(=O)O)NC(=O)[C@H](CO)NC(=O)[C@@H](NC(=O)[C@H](Cc1ccccc1)NC(=O)[C@@H](NC(=O)CNC(=O)[C@H](Cc1c[nH]cn1)NC(=O)[C@H](CO)NC(=O)[C@@H](N)Cc1ccc(O)cc1)[C@@H](C)O)[C@@H](C)O)C(=O)N[C@@H](CC(=O)O)C(=O)NC(C)(C)C(=O)N[C@@H](CO)C(=O)N[C@@H](CCCNC(=N)N)C(=O)N[C@@H](C)C(=O)N[C@@H](CCC(N)=O)C(=O)N[C@@H](CCC(=O)O)C(=O)N[C@@H](Cc1ccccc1)C(=O)N[C@H](C(=O)NC(C)(C)C(=O)N[C@@H](Cc1c[nH]c2ccccc12)C(=O)N[C@@H](CC(C)C)C(=O)N[C@@H](CCC(=O)O)C(=O)N[C@@H](CC(=O)O)C(=O)N[C@@H](CCC(=O)O)C(=O)N1CCC[C@H]1C(=O)N[C@@H](CO)C(=O)N[C@@H](CO)C(=O)NCC(=O)N[C@@H](C)C(=O)N1CCC[C@H]1C(=O)N1CCC[C@H]1C(=O)N1CCC[C@H]1C(=O)N[C@@H](CO)C(=O)O)C(C)C
With B7, in test [1], the “hGCGR pEC50 (cAMP)” value turned out to be 11 pEC50. The “hGLP1 pEC50 (cAMP)” value in test [2] was below 9 pEC50.
